# In PMC8327961, “Nse5/6 inhibits the Smc5/6 ATPase and modulates DNA substrate binding” (The EMBO Journal, 2021):
# Changes are numbered by the printed parent chain. Names may count otherwise.
# T1: Smc6-3C-Twin-Strep (S. cerevisiae, UniProt Q12749 1-1114)
# T1 construct: Smc6, S. cerevisiae; stood in the assays as a subunit of the hexamer or octamer; also called Smc6-Twin-Strep; Smc6-3C-TS; source: E. coli (DE3) Rosetta, co-expressed with the other subunits of the hexamer, purified as part of the complex; not shown: Twin-Strep (after a 3C site), C-terminal, kept
# T1 sequence (looked up): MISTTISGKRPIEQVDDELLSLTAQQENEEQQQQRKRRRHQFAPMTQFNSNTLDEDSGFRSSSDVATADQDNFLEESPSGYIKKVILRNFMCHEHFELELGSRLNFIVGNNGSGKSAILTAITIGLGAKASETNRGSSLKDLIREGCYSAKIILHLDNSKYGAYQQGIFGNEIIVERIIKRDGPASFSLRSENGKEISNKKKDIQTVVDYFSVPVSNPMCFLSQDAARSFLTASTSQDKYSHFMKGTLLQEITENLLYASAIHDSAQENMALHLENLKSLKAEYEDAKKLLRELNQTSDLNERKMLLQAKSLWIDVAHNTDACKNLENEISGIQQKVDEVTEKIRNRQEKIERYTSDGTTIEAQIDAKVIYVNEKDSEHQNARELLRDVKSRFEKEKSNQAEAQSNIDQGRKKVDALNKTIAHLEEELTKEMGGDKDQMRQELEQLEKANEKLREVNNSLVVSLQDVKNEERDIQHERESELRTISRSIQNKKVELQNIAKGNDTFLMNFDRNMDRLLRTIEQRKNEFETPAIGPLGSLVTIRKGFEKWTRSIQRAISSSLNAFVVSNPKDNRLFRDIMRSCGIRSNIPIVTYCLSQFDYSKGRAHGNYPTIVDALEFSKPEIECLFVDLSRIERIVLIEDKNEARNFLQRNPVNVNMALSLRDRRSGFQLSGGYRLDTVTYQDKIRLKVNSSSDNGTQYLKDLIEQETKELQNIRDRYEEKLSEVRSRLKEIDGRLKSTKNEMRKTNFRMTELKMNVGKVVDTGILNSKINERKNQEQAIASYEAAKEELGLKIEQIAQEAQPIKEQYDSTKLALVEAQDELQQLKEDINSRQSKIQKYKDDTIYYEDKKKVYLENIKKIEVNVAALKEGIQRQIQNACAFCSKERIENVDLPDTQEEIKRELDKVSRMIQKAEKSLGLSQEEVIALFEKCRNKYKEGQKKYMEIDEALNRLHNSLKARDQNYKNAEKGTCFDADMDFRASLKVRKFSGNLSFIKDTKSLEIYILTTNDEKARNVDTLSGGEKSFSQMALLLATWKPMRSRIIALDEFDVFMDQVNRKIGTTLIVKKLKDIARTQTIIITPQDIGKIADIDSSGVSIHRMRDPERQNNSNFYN
# T2: Smc6(N572C) (S. cerevisiae, UniProt Q12749 1-1114, N572C)
# T2 construct: Smc6, S. cerevisiae; subunit of the Hinge-Cys (north) hexamer; also called Hinge-Cys north, Smc6; source: E. coli (DE3) Rosetta, purified as part of the hexamer
# T2 sequence (looked up): T1 sequence (looked up) with N572C
# T3: Smc6(N643C) (S. cerevisiae, UniProt Q12749 1-1114, N643C)
# T3 construct: Smc6, S. cerevisiae; subunit of the Hinge-Cys (south) hexamer; also called Hinge-Cys south, Smc6; source: E. coli (DE3) Rosetta, purified as part of the hexamer
# T3 sequence (looked up): T1 sequence (looked up) with N643C
# B1: Smc5(N975C) (natural protein, S. cerevisiae, UniProt Q08204 1-1093, looked up)
# chain: MTSLIDLGRYVERTHHGEDTEPRSKRVKIAKPDLSSFQPGSIIKIRLQDFVTYTLTEFNLSPSLNMIIGPNGSGKSTFVCAVCLGLAGKPEYIGRSKKVEDFIKNGQDVSKIEITLKNSPNVTDIEYIDARDETIKITRIITRSKRRSDYLINDYQVSESVVKTLVAQLNIQLDNLCQFLSQERVEEFARLKSVKLLVETIRSIDASLLDVLDELRELQGNEQSLQKDLDFKKAKIVHLRQESDKLRKSVESLRDFQNKKGEIELHSQLLPYVKVKDHKEKLNIYKEEYERAKANLRAILKDKKPFANTKKTLENQVEELTEKCSLKTDEFLKAKEKINEIFEKLNTIRDEVIKKKNQNEYYRGRTKKLQATIISTKEDFLRSQEILAQTHLPEKSVFEDIDIKRKEIINKEGEIRDLISEIDAKANAINHEMRSIQRQAESKTKSLTTTDKIGILNQDQDLKEVRDAVLMVREHPEMKDKILEPPIMTVSAINAQFAAYLAQCVDYNTSKALTVVDSDSYKLFANPILDKFKVNLRELSSADTTPPVPAETVRDLGFEGYLSDFITGDKRVMKMLCQTSKIHTIPVSRRELTPAQIKKLITPRPNGKILFKRIIHGNRLVDIKQSAYGSKQVFPTDVSIKQTNFYQGSIMSNEQKIRIENEIINLKNEYNDRKSTLDALSNQKSGYRHELSELASKNDDINREAHQLNEIRKKYTMRKSTIETLREKLDQLKREARKDVSQKIKDIDDQIQQLLLKQRHLLSKMASSMKSLKNCQKELISTQILQFEAQNMDVSMNDVIGFFNEREADLKSQYEDKKKFVKEMRDTPEFQSWMREIRSYDQDTKEKLNKVAEKYEEEGNFNLSFVQDVLDKLESEIAMVNHDESAVTILDQVTAELRELEHTVPQQSKDLETIKAKLKEDHAVLEPKLDDIVSKISARFARLFNNVGSAGAVRLEKPKDYAEWKIEIMVKFRDCAPLKKLDSHTQSGGERAVSTVLYMIALQEFTSAPFRVVDEINQGMDSRNERIVHKAMVENACAENTSQYFLITPKLLTGLHYHEKMRIHCVMAGSWIPNPSEDPKMIHFGETSNYSFD
# notes: Smc5, S. cerevisiae; pairs with the natural cysteines C92 and C147 of Smc6; also called E-Cys, Smc5; source: E. coli (DE3) Rosetta, purified as part of the hexamer
# B2: Smc5(V638C) (natural protein, S. cerevisiae, UniProt Q08204 1-1093, looked up)
# chain: B1 chain with V638C, C975N
# notes: Smc5, S. cerevisiae; subunit of the Hinge-Cys (north) hexamer; also called Hinge-Cys north, Smc5; source: E. coli (DE3) Rosetta, purified as part of the hexamer
# B3: Smc5(N526C) (natural protein, S. cerevisiae, UniProt Q08204 1-1093, looked up)
# chain: B1 chain with N526C, C975N
# notes: Smc5, S. cerevisiae; subunit of the Hinge-Cys (south) hexamer; also called Hinge-Cys south, Smc5; source: E. coli (DE3) Rosetta, purified as part of the hexamer
# How the values were obtained:
# Test in all cases: cross-linking; BMOE (1 mM, 45 s) on hexamers with reporter cysteines, 0.5 µM in ATPase buffer; without or with Nse5/6 (0.625 µM), 2 mM ATP, plasmid DNA or 40 bp DNA; SDS-PAGE, Coomassie
# Details in all cases: both partners purified
# Smc6-3C-Twin-Strep = biological target: T1, Smc6-3C-Twin-Strep
# Smc6(N572C) = biological target: T2, Smc6(N572C)
# Smc6(N643C) = biological target: T3, Smc6(N643C)
binder,measurement,setting,value
B1,binding result,Smc6-3C-Twin-Strep,binds
B2,binding result,Smc6(N572C),binds
B3,binding result,Smc6(N643C),binds
